Here are results for 1 molecule from publication PMC3290704 (2012).

The target of experiment [1] is T1, p53 AD1 13-37 (Homo sapiens, UniProt P04637). Put plainly: NMR HSQC titration, local fit raw.
For experiment [2], the target named is T1, p53 AD1 13-37. Description: NMR HSQC titration, local fit SVD.
The target in experiment [3] is T1, p53 AD1 13-37. Description: NMR HSQC titration, local fit SVD. The source holds these as a separate data set.
The target of experiment [4] is T1, p53 AD1 13-37. Put plainly: NMR HSQC titration, global fit raw.
In experiment [5] the target is T1, p53 AD1 13-37. Put plainly: NMR HSQC titration, local fit raw. This is another data set of the same source.
Experiment [6] has as its target T1, p53 AD1 13-37. Description: NMR HSQC titration, local fit raw with concentration correction.
Experiment [7] has as its target T1, p53 AD1 13-37. Description: NMR HSQC titration, global fit SVD.

T1 sequence (P04637 13-37): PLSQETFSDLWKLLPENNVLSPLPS

B1: CBP TAZ2 1764-1855 (protein)
chain: SPQESRRLSIQRCIQSLVHACQCRNANCSLPSCQKMKRVVQHTKGCKRKTNGGCPVCKQLIALCCYHAKHCQENKCPVPFCLNIKHKLRQQQ
For B1, the Kd in experiment [1] turned out to be 448 µM; in experiment [2] it was 33 µM; in experiment [3] it was 225 µM; in experiment [4] it was 180 µM; in experiment [5] it was 27 µM; in experiment [6] it was 345 µM. Besides, in experiment [7], the Kd is 32 µM.

Usually Kd stands for the free concentration of one partner at which half of the binding sites on the other are occupied at equilibrium, for simple one-to-one binding.
